This passage reports Kd results from publication doi:10.1101/317651, “Poly(ADP-ribose) polymerase 1 Searches DNA via a ‘Monkey Bar’ Mechanism”.

Conditions in all cases: protein: recombinant; tags: His tag (Ni-NTA, pET28a); blunt
In one data set the target is PARP1 W589A (Homo sapiens, UniProt P09874 1-1014, W589A). The data set is described as follows: stopped-flow fluorescence anisotropy; K1; kinetically derived, Scheme 2 (no ternary complex); 50 mM Tris-HCl pH 7.5, 50 mM NaCl, 1 mM MgCl2, 0.1 mM EDTA, 0.01% IGEPAL; 20 °C (stated for association). (In general: Fluorescence polarisation rises when a labelled molecule tumbles more slowly, as on binding a larger partner.)
PARP1 W589A, sequence (P09874 whole entry W589A): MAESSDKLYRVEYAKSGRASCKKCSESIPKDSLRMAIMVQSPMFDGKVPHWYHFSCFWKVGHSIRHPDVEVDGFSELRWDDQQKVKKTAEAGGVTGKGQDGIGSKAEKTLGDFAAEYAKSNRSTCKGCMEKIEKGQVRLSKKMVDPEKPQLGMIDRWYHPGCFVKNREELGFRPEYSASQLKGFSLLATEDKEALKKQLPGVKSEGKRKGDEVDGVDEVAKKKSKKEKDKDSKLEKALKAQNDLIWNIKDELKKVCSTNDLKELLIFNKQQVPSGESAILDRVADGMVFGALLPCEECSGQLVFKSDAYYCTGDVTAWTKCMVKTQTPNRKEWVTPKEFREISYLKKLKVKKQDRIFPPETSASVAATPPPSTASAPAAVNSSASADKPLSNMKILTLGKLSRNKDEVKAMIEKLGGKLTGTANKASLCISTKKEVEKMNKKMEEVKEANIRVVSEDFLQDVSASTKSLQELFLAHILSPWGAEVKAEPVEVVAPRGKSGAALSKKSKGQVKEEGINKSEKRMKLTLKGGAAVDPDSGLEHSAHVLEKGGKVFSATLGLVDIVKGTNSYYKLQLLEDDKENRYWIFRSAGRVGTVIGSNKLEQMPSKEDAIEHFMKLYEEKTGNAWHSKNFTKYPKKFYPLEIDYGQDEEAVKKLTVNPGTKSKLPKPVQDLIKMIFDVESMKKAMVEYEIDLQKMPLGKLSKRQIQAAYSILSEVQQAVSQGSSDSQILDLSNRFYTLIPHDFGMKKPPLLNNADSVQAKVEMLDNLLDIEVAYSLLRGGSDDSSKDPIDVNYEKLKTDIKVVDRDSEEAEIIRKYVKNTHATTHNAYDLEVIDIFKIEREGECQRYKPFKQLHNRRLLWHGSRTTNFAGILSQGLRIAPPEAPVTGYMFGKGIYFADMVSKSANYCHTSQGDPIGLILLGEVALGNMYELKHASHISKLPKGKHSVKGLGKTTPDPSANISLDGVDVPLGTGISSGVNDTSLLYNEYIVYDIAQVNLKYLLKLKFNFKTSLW

Another data set has as its target PARP1 ΔZn1 (Homo sapiens, UniProt P09874 1-1014, del2-96). The data set is described as follows: stopped-flow fluorescence anisotropy; K1, first DNA; kinetically derived; 50 mM Tris-HCl pH 7.5, 50 mM NaCl, 1 mM MgCl2, 0.1 mM EDTA, 0.01% IGEPAL; 20 °C (stated for association).
The next data set deals with PARP1 wild-type (Homo sapiens, UniProt P09874 1-1014). Described as above.
PARP1 wild-type, sequence (P09874 whole entry): as the sequence (P09874 whole entry W589A) above, with A589W counted along it

PARP1 ΔZn1, sequence (P09874 other isoform, or with tags, fused parts or gaps del2-96 | mutant): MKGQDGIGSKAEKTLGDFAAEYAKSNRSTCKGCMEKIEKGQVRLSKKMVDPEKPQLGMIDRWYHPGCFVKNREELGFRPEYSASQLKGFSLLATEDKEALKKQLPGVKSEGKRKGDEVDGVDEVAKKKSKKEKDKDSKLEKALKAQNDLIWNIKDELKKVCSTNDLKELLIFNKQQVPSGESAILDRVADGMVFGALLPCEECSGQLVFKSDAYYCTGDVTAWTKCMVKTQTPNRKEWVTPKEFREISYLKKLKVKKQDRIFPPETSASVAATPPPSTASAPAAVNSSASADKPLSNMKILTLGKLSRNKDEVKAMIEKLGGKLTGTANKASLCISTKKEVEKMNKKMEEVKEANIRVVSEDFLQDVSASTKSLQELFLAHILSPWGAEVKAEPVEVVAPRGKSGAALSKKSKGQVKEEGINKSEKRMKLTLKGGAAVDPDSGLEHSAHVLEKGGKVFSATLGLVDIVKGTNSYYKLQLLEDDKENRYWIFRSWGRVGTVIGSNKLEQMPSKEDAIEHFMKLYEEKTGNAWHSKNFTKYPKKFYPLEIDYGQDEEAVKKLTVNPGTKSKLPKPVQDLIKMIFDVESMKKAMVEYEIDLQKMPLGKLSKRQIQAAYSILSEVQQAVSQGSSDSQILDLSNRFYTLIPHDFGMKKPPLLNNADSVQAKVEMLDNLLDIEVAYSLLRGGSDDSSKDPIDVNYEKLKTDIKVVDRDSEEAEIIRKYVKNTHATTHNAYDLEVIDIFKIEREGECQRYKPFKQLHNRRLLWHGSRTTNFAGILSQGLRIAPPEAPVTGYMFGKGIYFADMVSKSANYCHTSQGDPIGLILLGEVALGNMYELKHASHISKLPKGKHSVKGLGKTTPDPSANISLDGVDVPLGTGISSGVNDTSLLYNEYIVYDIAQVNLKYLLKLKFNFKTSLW

B1: p18mer* (dsDNA)
DNA 1: GGGTTGCGGCCGCTTGGG
DNA 2: CCCAAGCGGCCGCAACCC
modifications: 5'-phosphate
In the case of B1, the Kd in the data set with PARP1 W589A was 4.9 ± 1.1 nM; in the data set with PARP1 ΔZn1 it was below 2.7 nM; with PARP1 wild-type, below 3.2 nM.

For orientation: Kd means a measure of binding affinity in units of concentration.
